These results are taken from publication PMC5549770, “Human cytomegalovirus IE1 downregulates Hes1 in neural progenitor cells as a potential E3 ubiquitin ligase” (PLoS Pathogens, 2017).

The target in experiment [1] is T1, His-IE1 (pET-IE1) (human cytomegalovirus (Towne strain), UniProt P03169 1-491).
T1 construct: HCMV IE1 (UL123), wild type, cloned into pET28a; 491 amino acids (Towne); also called purified IE1; source: E. coli BL21, purified (cOmplete His-Tag Purification Resin); not shown: His6, N-terminal, kept
T1 sequence: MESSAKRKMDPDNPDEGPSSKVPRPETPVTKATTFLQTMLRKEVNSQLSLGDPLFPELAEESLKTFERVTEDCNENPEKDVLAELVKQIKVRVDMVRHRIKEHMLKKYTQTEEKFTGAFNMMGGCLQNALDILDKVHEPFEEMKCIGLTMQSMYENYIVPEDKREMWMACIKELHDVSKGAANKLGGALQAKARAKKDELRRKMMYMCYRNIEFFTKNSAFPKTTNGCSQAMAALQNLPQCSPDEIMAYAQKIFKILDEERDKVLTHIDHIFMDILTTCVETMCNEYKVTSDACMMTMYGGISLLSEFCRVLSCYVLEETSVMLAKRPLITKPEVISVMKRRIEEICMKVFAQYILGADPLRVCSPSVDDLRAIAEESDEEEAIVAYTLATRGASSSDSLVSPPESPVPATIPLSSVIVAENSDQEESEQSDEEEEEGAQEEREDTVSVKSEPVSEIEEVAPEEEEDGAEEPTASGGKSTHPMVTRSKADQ
The experiment can be described thus: pull-down; purified His-Sp100A mixed with Ubc5a in the presence of purified His-IE1; Sp100A- or Ubc5a-directed IP, IB; Buffer A, 4°C. The conditions noted are these: both partners purified.

The target in experiment [2] is T1, His-IE1 (pET-IE1). Nature of the experiment: pull-down; in vitro pull-down: 1μg of each purified His-tagged protein (His-IE1 or His-Δ451–475 with His-Hes1) mixed in 300μl Buffer A (50mM NaH2PO4, 300mM NaCl, pH 8.0), antibody overnight at 4°C, protein A+G agarose. Particulars: both partners purified.

B1: His-Sp100A (pET-Sp100A) (natural protein)
chain: not shown
notes: human Sp100A (isoform A of the nuclear autoantigen Sp-100) cloned into pET28a; also called purified Sp100A; source: E. coli BL21, purified (cOmplete His-Tag Purification Resin); not shown: His6, N-terminal, kept
Regarding B1, in experiment [1], the binding result was “binds”.

B2: His-Hes1 (pET-Hes1) (natural protein, human, UniProt Q14469 1-280, looked up)
chain: MPADIMEKNSSSPVAATPASVNTTPDKPKTASEHRKSSKPIMEKRRRARINESLSQLKTLILDALKKDSSRHSKLEKADILEMTVKHLRNLQRAQMTAALSTDPSVLGKYRAGFSECMNEVTRFLSTCEGVNTEVRTRLLGHLANCMTQINAMTYPGQPHPALQAPPPPPPGPGGPQHAPFAPPPPLVPIPGGAAPPPGGAPCKLGSQAGEAAKVFGGFQVVPAPDGQFAFLIPNGAFAHSGPVIPVYTSNSGTSVGPNAVSPSSGPSLTADSMWRPWRN
notes: human Hes1 cloned into pET28a; also called purified Hes1; source: E. coli BL21, purified (cOmplete His-Tag Purification Resin); not shown: His6, N-terminal, kept
With B2, the binding result in experiment [2] is “binds”.
